For the experiment, the target named is Mouse CT-1 fusion protein (mouse cardiotrophin-1 with a 34 amino acid N-terminal extension that encodes a portion of the herpes simplex virus glycoprotein D and a factor Xa cleavage site) (mouse) (UniProt Q60753). In words: 125I-mouse CT-1 binding to soluble LIF receptor with added soluble gp130, Ni-NTA agarose.
Mouse CT-1 fusion protein (mouse cardiotrophin-1 with a 34 amino acid N-terminal extension that encodes a portion of the herpes simplex virus glycoprotein D and a factor Xa cleavage site) (mouse), sequence (Q60753 whole entry, the tested form may be a part): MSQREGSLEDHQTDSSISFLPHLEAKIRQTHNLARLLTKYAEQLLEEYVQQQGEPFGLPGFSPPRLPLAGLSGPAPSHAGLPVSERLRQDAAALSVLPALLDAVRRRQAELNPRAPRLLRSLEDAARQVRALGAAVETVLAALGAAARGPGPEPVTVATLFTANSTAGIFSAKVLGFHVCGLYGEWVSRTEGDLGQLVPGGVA

Turning to “Soluble mouse gp130 (extracellular domain, amino acids 1-617, with a C-terminal tag of 6 histidine residues) (from UniProt Q00560 23-617) (receptor)”, the concentration of soluble gp130 required to increase the binding of CT-1 to the soluble LIF receptor turned out to be 100 nM.

The values are drawn from patent US20040006018A1.
